Reference: US20140271675A1 (Eli Lilly, published 2014)

How the values were obtained:
[1] = target: hVEGFR1-Fc (R&D 321-fl 050/cf) (human) (UniProt P17948); test: competition ELISA, coated hVEGFR1-Fc, competitor biotin-hPLGF1 4 nM; control Ron antibody 0.0069 µg/ml
[2] = target: hVEGFR1-Fc (R&D 321-fl 050/cf) (human) (UniProt P17948); test: competition ELISA, coated hVEGFR1-Fc, competitor biotin-hVEGFA-165 2 nM; control Ron antibody 5.556 µg/ml
[3] = target: hVEGFR1-Fc (R&D 321-fl 050/cf) (human) (UniProt P17948); test: competition ELISA, coated hVEGFR1-Fc, competitor biotin-hVEGFA-165 2 nM; control Ron antibody 0.0023 µg/ml
[4] = target: hVEGFR1-Fc (R&D 321-fl 050/cf) (human) (UniProt P17948); test: competition ELISA, coated hVEGFR1-Fc, competitor biotin-hPLGF1 2 nM; control Ron antibody 1.852 µg/ml
[5] = target: hVEGFR1-Fc (R&D 321-fl 050/cf) (human) (UniProt P17948); test: competition ELISA, coated hVEGFR1-Fc, competitor biotin-hVEGFA-165 2 nM; control Ron antibody 0.5556 µg/ml
[6] = target: hVEGFR1-Fc (R&D 321-fl 050/cf) (human) (UniProt P17948); test: competition ELISA, coated hVEGFR1-Fc, competitor biotin-hPLGF1 2 nM; control Ron antibody 5.556 µg/ml
[7] = target: hVEGFR1-Fc (R&D 321-fl 050/cf) (human) (UniProt P17948); test: competition ELISA, coated hVEGFR1-Fc, competitor biotin-hPLGF1 2 nM; control Ron antibody 0.069 µg/ml
[8] = target: hVEGFR1-Fc (R&D 321-fl 050/cf) (human) (UniProt P17948); test: competition ELISA, coated hVEGFR1-Fc, competitor biotin-hVEGFA-165 2 nM; control Ron antibody 1.6667 µg/ml

hVEGFR1-Fc (R&D 321-fl 050/cf) (human), sequence (P17948 27-758): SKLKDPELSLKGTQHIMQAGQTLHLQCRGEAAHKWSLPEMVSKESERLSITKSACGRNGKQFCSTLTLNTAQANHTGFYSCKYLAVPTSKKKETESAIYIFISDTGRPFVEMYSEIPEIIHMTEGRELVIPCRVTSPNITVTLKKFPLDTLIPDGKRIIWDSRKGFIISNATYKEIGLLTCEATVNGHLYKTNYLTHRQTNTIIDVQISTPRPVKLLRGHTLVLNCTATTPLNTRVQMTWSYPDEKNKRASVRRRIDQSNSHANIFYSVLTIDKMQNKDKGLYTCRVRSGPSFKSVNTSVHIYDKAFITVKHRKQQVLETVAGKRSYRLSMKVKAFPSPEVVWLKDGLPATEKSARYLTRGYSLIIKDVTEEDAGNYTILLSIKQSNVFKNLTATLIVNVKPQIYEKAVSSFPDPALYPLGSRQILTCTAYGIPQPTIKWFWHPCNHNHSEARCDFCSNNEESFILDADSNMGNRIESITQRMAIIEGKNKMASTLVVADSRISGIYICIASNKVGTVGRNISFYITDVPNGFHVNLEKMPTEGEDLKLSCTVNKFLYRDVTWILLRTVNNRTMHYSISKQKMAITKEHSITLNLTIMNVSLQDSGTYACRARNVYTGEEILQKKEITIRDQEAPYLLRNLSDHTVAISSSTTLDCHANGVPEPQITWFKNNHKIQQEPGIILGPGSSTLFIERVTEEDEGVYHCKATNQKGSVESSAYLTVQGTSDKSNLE

OD560 (bound biotinylated PlGF) [1]: 0.37 OD | OD560 (bound biotinylated VEGF-A) [2]: 0.535 OD | OD560 (bound biotinylated VEGF-A) [3]: 1.54 OD | OD560 (bound biotinylated PlGF) [4]: 0.3 OD | OD560 (bound biotinylated VEGF-A) [5]: 1.47 OD | OD560 (bound biotinylated PlGF) [6]: 0.298 OD | OD560 (bound biotinylated PlGF) [7]: 0.283 OD | OD560 (bound biotinylated VEGF-A) [8]: 1.42 OD
Substance: control Ron antibody (R&D MAB691)
